In the DeepSol protein solubility set:

Assay: soluble on expression in E. coli; label from the status in PepcDB or PDB records
With “GPGSDQLKQSAFLVRNDEKVAALIVLLKRVLHVGEAAANSAQALIFSESKFHVEFLQMILTHYSISTSAVHGQMDQEARRLAVRSFAKRETSVMVVTDVAARGLDLPLLDNVVNFSFPFNPKLFVHRVGRVARAGRSGTAYSIMTFEDFPYYVDLMQFIGRPLQSAPVPGDLLFTPDDGCYGRLPEEDIQLELDFLKRLH” the “soluble on expression in E. coli” value was “not soluble”.
In the case of “MGDIHFIGSAANFFRSSTSDDWVRFHTFAEETLKGSQSLIALQWLVKVEPPQAETFTARMQQRFPEFTLYTVPKTGEIKYGFGTDDQAKYVLSDIYPLNYDNRKLLGFYSERERFKRILADIVVNRRPNVSDKVRLLQDGIDKSIVKDGMLVYHPVFSSEDDRSLLGVMVGVVRLSTYFEKLVQISVMEQDLDMRVIDTGFDSEDSPVLYQSPMWRADDEPKIERKLVLPNRDWVLEFELHQPINHSEELEHHHHHH”, the “soluble on expression in E. coli” value is reported as “not soluble”.
In the case of “MSESFAELFEESLKSLDMQPGAIITGIVVDIDGDWVTVHAGLKSEGVIPVEQFYNEQGELTIKVGDEVHVALDAVEDGFGETKLSREKAKRAESWIVLEAAFAADEVVKGVINGKVKGGFTVDVNGIRAFLPGSLVDVRPVRDTTHLEGKELEFKVIKLDQKRNNVVVSRRSVLEAENSAEREALLESLQEGQQVKGIVKNLTDYGAFVDLGGVDGLLHITDMAWKRIKHPSEIVNVGDEIDVKVLKFDRERNRVSLGLKQLGEDPWVAIKARYPEGTRVMARVTNLTDYGCFAELEEGVEGLVHVSEMDWTNKNIHPSKVVQVGDEVEVQVLDIDEERRRISLGIKQCKSNPWEDFSSQFNKGDRISGTIKSITDFGIFIGLDGGIDGLVHLSDISWNEVGEEAVRRFKKGDELETVILSVDPERERISLGIKQLEDDPFSNYASLHEKGSIVRGTVKEVDAKGAVISLGDDIEGILKASEISRDRVEDARNVLKEGEEVEAKIISIDRKSRVISLSVKSKDVDDEKDAMKELRKQEVESAGPTTIGDLIRAQMENQGLEHHHHHH”, the “soluble on expression in E. coli” value is reported as “soluble”.
For “GPGSMPAINREELDRRVEQIYDQVVAWRRYIHENPDLSFEEQPTAAYIKGELQKMDAEGRWLHISQPESNCVVADLKGGGGDGPIIALRADIDALPVEELTDVPFASKKQGVMHACGHDTHAAMLLGATKLLLEDAGRIKGTVRLLFQPAEEVPPGGAQMMIEKGCMEGVAMVFAEHIIPMKEGPTGTVLVKRGPFLSSSDTLHVEIIGRGGHASMPESSIDPIAIACLAVTALQQVVSRRMPPSKCPILTITTIASSSDSYNVIPDRVTLKGTLRTQDREVRENAKKAVAEVLHGICGSYGAMCSLNWLPGYDVTVNTDSAYDVGMRVFAQVLPSKDQVVVLSACMSPSEDFSEFAKVAPANYVGIGCYNPGKGCTAVNHNAKFCVDEEAMKVGVKVHYGTIHELLMQ”, the “soluble on expression in E. coli” value was “not soluble”.
For “MTCLSRDWATAQRLVEWALASTRCECFNVDSNFMAGLCLVENPTKQHYSFEVRKQVVDRFNAGQSKMDLAREFGLSSDQLVSSWVRAWRAGGDEALRPKPKGRPKGSASSKPLTEEDRLRREVEKLRAENAYLKKLRDLRNQRRSLEHHHHHH”, the “soluble on expression in E. coli” value was “soluble”.
For “MATATMLKPLGDRVVVKRIEEEAKTKGGIVLPDTAKEKPQKGKVVAVGSGRTLDNGTKVPLEVKEGDTVVFAKYGGTEIEIDGEEYIILSERDLLAVI”, the “soluble on expression in E. coli” value was “soluble”.
With “MSLNSIQHIRKAEIHVHLEATIGPDLCRKFAKRNKVTLTDDIFGSQYAYAWDDFYDFIKKYDLVTSVIHTPEDYRELTYSYLKECAKNNVLYVEAMISSTHAKLKGMSYHSFLEGVAEGSKQAEDEFGIISKYIMNGIRHLGPESVQKTAEEVLEFPHKDLVGFGLAGDELHFPPKLFTKTFDMLKEANFPITVHAGEWDGPENIRHAINLLHPTRLGHGVRSIEDPDLVKEIIDKDIILETCPTSNIATKIYEDYKSHPVKTLFDQGVKVTVNSDDPPFFNATIQGEYKVMEDLGLNEKELTSLTHNAIKYSFCDEENKNELLAKLNEGHHHHHH” the “soluble on expression in E. coli” value was “soluble”.
For “AGIVNQVTAKNITADLQGGYPWSESNPLLLSDVSVDVLGGQIIMKQLRMPQHDPALLRVQNISSSELISAINPKQFAMSGPVSGALPLWLNNEKWIIKDGWLTNPGPMTLRIDKDTADAVVKDNVTAGSAINWLRYMEITHSWTKINVDNLGVLTMQAAITGKSRVDGKTAIVNLNYTHEENVFTLWRSLRFGDNLQAWLEQNTALPQPP”, the “soluble on expression in E. coli” value was “not soluble”.
For “MAHHHHHHMVLLSVKGTTFPDEFVYECTAATAIYPDLARNLCHIQNSRHLVKLILLSARELLDEARCKKRVEVVDEGPGDGGANSYSALLTEYGAIIESTSARLKDRVVPVSLEEFDQYADRLRELTERLYPEECCVPEGGRSAAVDRLYQLHDDPNLDEDRRLAVYHCRAILDPQWKSHEQQKEDKAGLWFCGKLMEDTIARYSGKNEKSRLTVKVHPKDSVPPSTEPRISYDDQRALYERMRTRREEYKGLEESELRDRVVAQARGKVALTAPAAASPAMSMDLSRLRPICPKREEHEVN”, the “soluble on expression in E. coli” value was “not soluble”.
With “MNDETPRCPYNSLYKPLNLIKSKPDGCFKHNGQCTYGKNLVESVDDGNSRTPYNSIYEPLSLNKPKPDGRSSNGKKPVDNEYVNLPVLSEEQKLADKLAAKLRKLEVKEPKSKKRGSKERKKKKSEPVESTYESLATIEGSTNYSGPVTTESLESNVKFHHASQTAYIGVYSSADAEAQVKNRGEFALYHLFEVGNGIDHLTATLPFGGLWIPNRSQTLLAQSTRSILQIVRIDSDETRGHLL” the “soluble on expression in E. coli” value was “not soluble”.
With “MDADVIVVGAGLAGLVAAHELTSRGRRVALVDQENAANLGGQAFWSFGGLFLVDSPEQRRLGVKDSLDLAWNDWQGSAGFDRTEDEDSWAVRWARAYVEWAAGEKRSWLAGHGITFLPTVGWAERGDLRAGGHGNSVPRFHIAWGTGTGVVEPFVRYAKQAARDGLLTFHHRHRVDHLVVEDGTARGVRGTVLAPDDSPRGVASSRDTAGEFELAAQAVIVTSGGIGADHDIVRRHWPERLGTPPAEMVTGVPAYVDGRMLGISAEAGARLVNRDRMWHYTEGVRNWDPIWPGHGIRILPGPSSMWFDALGRRLPEPYLPGYDTLGTLRHLRTAEGLAEHGHSWFVLTRKIIEKEFALSGSEQNPDITAKDRAGFLRERVLGKGAPGPVGAFLRHGADFVTAPDLEQLVEKMNRLTDKPLLDAAALRRQIEARDLQLANPYAKDAQVQGIRNARRYIGDRLGRVATPHRLLDPAAGPLIGVKLHILTRKTLGGIQTDLDSRALGADGTPVEGLYAAGEVAGFGGGGVHGYNALEGTFLGGCLFSGRAAGRAAARQTALEHHHHHH” the “soluble on expression in E. coli” value was “not soluble”.
In the case of “MLLKSHHSGGRKTRFLTVLDVGSSKIVCLIACLRPLKHAHYLHGRTHSMEILGFGVQRSRGIKSGVVMDIFAAEQSIRLAVDAAEKMAGLVVDSVIVNFSSSRLQSALINGVVSLNGREVTKRDIRVAFADVSRKAFNAERHVVHSVPVSYVLDGDKGISDPVGMIGDFFGVDVHVVTAETAALRNLETCINRAHLSVEAMVVTPFASGLAVLMNDEAHLGAACIDFGGGTTTFSVFSEGKFVHANALAVGGHHVTLDVARGFSMSLPEAERLKVVYGSALVTSADERHMVNVTEIGNEHREIQYPRAVLGRIIRARVEEILEMVRDCLNRSGFGHIIGKRVILTGGASQLTGLPEMARTILGRNVRIGRPLGISRLPSLAKGAAFTSAVGLLIYPQLVGFEEKTMQVAVNHLSTGTRGYFQRVGQWLRESF”, the “soluble on expression in E. coli” value is reported as “not soluble”.
In the case of “MGSDKIHHHHHHMAIVNRIALDLAKDFIQVLALDENEQEVFNKKLRSNKVLAKLATLSRTDDCEVAVESCGMSHYWRRECEKLGYKTVALPPRFVKAYLQGEKNDANDARAIAEAASRPNRQTVRLKSIEQQDLALMVNQREGFVQTRTQFSNRLRGQLAEYGILLPKRVGTILQRVPEVLEDDSNALTLQSRDLINRLYQMLRAVDEEVKALDKHLATQAERNEDSQRLMTLPGIGPITATSLLALIGDVSEFKRGRNLSEYLGLVPRQNSSGGKDRLGGITKKGNTKLRTLLVHGARSALRVAQQRHDRLSLWAQDVAKRRGNNVAAVALANKHARIIWAMLKNKEDYRMTAA”, the “soluble on expression in E. coli” value is reported as “not soluble”.
For “MTVQTKTKGLAWQEKPLSDNERLKTESNFLRGTILDDLKDPLTGGFKGDNFQLIRFHGMYEQDDRDIRAERAEAKLEPLKFM”, the “soluble on expression in E. coli” value was “not soluble”.
For “MTNRQWETLREYDEIKYEFYEGIAKVTINRPEVRNAFTPKTVAEMIDAFSRARDDQNVSVIVLTGEGDLAFCSGGDQKKRGHGGYVGEDQIPRLNVLDLQRLIRIIPKPVIAMVKGYAVGGGNVLNVVCDLTIAADNAIFGQTGPKVGSFDAGYGSGYLARIVGHKKAREIWYLCRQYNAQEALDMGLVNTVVPLEKVEDETVQWCKEIMKHSPTALRFLKAAMNADTDGLAGLQQMAGDATLLYYTTDEAKEGRDAFKEKRDPDFDQFPKFP”, the “soluble on expression in E. coli” value was “soluble”.
For “MGSDKIHHHHHHMSESCILFFVKYPEPGKVKTRLGEVVGNDKAAMLYRHFVQDMLQGLARLHADLHICYVPGDADLPEKFKAWLGPQHMFAAQQGLDLGERMKHAMQKAFDDGYDRVVLMGSDIPDYPCELVQKALNDLQHYDAAIGPAFDGGYYLIGFRKDSFCPDVFDGIRWGEADVYQPTVEKMRRARLEVLQLPDWNDVDTVWDLNVLYRTNKNSSFRRSSTYALLRENDALIRQYDIDLPGMAPVEKE”, the “soluble on expression in E. coli” value was “not soluble”.
For “MSLTITVLQGGNVLDLERGVLLEHHHVVIDGERIVEVTDRPVDLPNAQAIDVRGKTVMPGFIDCHVHVLASNANLGVNATQPNILAAIRSLPILDAMLSRGFTSVRDAGGADWSLMQAVETGLVSGPRIFPSGKALSQTGGHGDFRPRGDLLEPCSCCFRTGAIARVVDGVEGVRLAVREEIQKGATQIKIMASGGVASPTDPIANTQYSEDEIRAIVDEAEAANTYVMAHAYTGRAIARAVRCGVRTIEHGNLVDEAAAKLMHEHGAFVVPTLVTYDALAKHGAEFGMPPESVAKVASVQQKGRESLEIYANAGVKMGFGSDLLGEMHAFQSGEFRIRAEVLGNLEALRSATTVAAEIVNMQGQLGVIAVGAIADLVVLDGNPLEDIGVVADEGARVEYVLQRGTLVKRQAAGREGHHHHHH”, the “soluble on expression in E. coli” value was “soluble”.
For “MSLTYLNHILVIEDDLDAAESLSDMLSIDGFQITTTASVQDAMELLESQRFGVILTDRHLPDGLIEHRLQEILEVSSKTPVIVVTGYSDLQAVILAFRQGISDYVIKPIIPEDLIQTVRRILERRVLEQHLQIEHAFAERIQSTAEAIILVIDFDGRVIHFNRFFTELTGWAQGDLIGENWFDRCIYPEDRDRLINVCDTMSRTDRYRGCTNRIRCKNGEAREIRWSNSKWSEADGGQQFILAIGIDVSDLAEATQRAVRAERLAAIGETVAALAHESRNAIQRINAASEVLAINIRGNVDSEEELSVVQRAASDLSTLLESVRAFAAPIQAKLECADLREIWRRSWDDLECKRSGRDVELVENATSCLHDVKVDVCRMEQLFRNLFLNALEASEGPVRIEIDCECNDEMVCLKVTDDGPGLTAEQSAHLFEPFYTTKPTGTGLGMPICQRIVEAHGGTIAAGNHLNGTEVAICVPRVKAAVLVSEGHHHHHH”, the “soluble on expression in E. coli” value was “soluble”.
With “METPSSAKRVTRSQAISAINDSDSDFKVPFSSSNKTEDSSIDQRKEEDRSALIDITNDSPIVGLTMQTPPSGFMVKRKSSRIKITPGSGEALLRGQVKTLLHKVEEGTELIHSIKTRPFIHLVTSPMRLLAPTPANTPQFPNFSDDDVKIKIASPIVAGNLRTSQISEEKEDKRMKKMNVETNQAEFAGKHNRFLYNSEDDEIVEAKEVLHLKGIPTPRGKHFRFATQEE” the “soluble on expression in E. coli” value was “soluble”.
With “SQGRKPSSELISYQRLHPNEFEIKNLGVLPQSHVIRMERVRFADDIPVAYEITSIPEKIIRGFKESEITEHFFKTLTDNGYEIGKSQQTISASLANSSLAKHLKVKTGDALLSLTQISFLQDGQAFEYVRSYYVGDRFE” the “soluble on expression in E. coli” value was “not soluble”.
